Legend:
Test in all cases: holdup assay
Parameters in all cases: key: below the threshold = too weak to quantify, mostly under pKd 3.1 to 4
GIPC2, Q8TF65 = target: GIPC2, Q8TF65
MAGI2_3, Q86UL8 = target: MAGI2_3, Q86UL8
PCLO, Q9Y6V0 = target: T1, PCLO, Q9Y6V0
T1 sequence (Q9Y6V0 4491-4600, limits assumed, looked up): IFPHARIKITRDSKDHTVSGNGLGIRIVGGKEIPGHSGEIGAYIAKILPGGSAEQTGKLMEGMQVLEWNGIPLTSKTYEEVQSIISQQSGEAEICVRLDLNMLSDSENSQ

NHERF2_2, Q15599 = target: NHERF2_2, Q15599
MAST2, Q6P0Q8 = target: MAST2, Q6P0Q8
DLG2_3, Q15700 = target: DLG2_3, Q15700
ARHGEF11, O15085 = target: T2, ARHGEF11, O15085
T2 sequence (O15085 42-136, limits assumed, looked up): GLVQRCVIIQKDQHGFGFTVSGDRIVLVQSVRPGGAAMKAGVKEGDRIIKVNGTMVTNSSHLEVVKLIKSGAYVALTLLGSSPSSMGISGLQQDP

LIN7A, O14910 = target: T3, LIN7A, O14910
T3 sequence (O14910 103-200, limits assumed, looked up): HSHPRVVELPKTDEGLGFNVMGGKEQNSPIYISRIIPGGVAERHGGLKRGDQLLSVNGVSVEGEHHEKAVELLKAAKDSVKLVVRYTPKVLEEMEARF

TX1BP3, O14907 = target: T4, TX1BP3, O14907
T4 sequence (O14907 10-122, limits assumed, looked up): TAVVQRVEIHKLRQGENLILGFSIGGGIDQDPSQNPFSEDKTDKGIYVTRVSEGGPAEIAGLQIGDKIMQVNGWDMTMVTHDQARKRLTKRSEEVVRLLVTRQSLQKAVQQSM

PDZRN4_1, Q6ZMN7 = target: PDZRN4_1, Q6ZMN7
Inadl_10, Q8NI35 = target: Inadl_10, Q8NI35
MPDZ_12, O75970 = target: T5, MPDZ_12, O75970
T5 sequence (O75970 1857-1958, limits assumed, looked up): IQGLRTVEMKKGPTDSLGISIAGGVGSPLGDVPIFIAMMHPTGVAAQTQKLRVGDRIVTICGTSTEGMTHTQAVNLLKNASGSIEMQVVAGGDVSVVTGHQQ

PTPN13_1, Q12923 = target: T6, PTPN13_1, Q12923
T6 sequence (Q12923 1088-1188, limits assumed, looked up): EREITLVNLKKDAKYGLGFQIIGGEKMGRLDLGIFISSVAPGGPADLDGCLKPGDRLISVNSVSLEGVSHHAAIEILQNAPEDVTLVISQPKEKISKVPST

SHANK1, Q9Y566 = target: T7, SHANK1, Q9Y566
T7 sequence (Q9Y566 658-767, limits assumed, looked up): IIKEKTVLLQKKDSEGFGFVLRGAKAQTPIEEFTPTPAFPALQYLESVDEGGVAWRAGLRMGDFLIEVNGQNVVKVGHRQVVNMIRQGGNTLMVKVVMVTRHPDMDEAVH

GORASP2, Q9H8Y8 = target: GORASP2, Q9H8Y8
Inadl_1, Q8NI35 = target: Inadl_1, Q8NI35
DLG1_1, Q12959 = target: DLG1_1, Q12959
GRASP, Q7Z6J2 = target: GRASP, Q7Z6J2
MAGI2_2, Q86UL8 = target: MAGI2_2, Q86UL8
DLG3_2, Q92796 = target: T8, DLG3_2, Q92796
T8 sequence (Q92796 221-321, limits assumed, looked up): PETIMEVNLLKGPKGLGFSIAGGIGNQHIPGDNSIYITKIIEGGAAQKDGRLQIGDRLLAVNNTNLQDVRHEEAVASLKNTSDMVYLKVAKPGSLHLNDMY

Inadl_5, Q8NI35 = target: Inadl_5, Q8NI35
DLG5_1, Q8TDM6 = target: DLG5_1, Q8TDM6
Inadl_9, Q8NI35 = target: Inadl_9, Q8NI35
MAGI2_6, Q86UL8 = target: MAGI2_6, Q86UL8
FRMPD1, Q5SYB0 = target: T9, FRMPD1, Q5SYB0
T9 sequence (Q5SYB0 52-145, limits assumed, looked up): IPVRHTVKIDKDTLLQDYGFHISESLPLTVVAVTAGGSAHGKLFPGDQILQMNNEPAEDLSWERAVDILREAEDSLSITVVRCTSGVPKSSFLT

GRID2IP_1, A4D2P6 = target: GRID2IP_1, A4D2P6
PTPN3, P26045 = target: PTPN3, P26045
LNX1_1, Q8TBB1 = target: LNX1_1, Q8TBB1
NHERF4_4, Q86UT5 = target: NHERF4_4, Q86UT5
[1] = plain residues with an end cap or a label only (N-terminal biotin on a linker: ado-ado)
[2] = plain residues with an end cap or a label only (N-terminal biotin on a linker: (peg)3)

Chain of MAGI2_6, Q86UL8 (Q86UL8 1141-1229): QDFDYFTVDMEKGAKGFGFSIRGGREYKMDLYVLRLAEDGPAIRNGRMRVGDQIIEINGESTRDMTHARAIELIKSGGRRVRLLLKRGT
Chain of Inadl_1, Q8NI35 (Q8NI35 113-229): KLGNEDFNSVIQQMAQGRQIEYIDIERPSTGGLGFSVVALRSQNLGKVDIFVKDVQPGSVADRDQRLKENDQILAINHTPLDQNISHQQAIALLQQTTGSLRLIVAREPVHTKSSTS
Chain of PDZRN4_1, Q6ZMN7 (Q6ZMN7 213-318): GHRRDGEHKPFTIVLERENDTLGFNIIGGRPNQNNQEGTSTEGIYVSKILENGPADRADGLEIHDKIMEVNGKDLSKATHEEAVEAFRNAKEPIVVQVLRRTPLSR
Chain of Inadl_5, Q8NI35 (Q8NI35 673-780): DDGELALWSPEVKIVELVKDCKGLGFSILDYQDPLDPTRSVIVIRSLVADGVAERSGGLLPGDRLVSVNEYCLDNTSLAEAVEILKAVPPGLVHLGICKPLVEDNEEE
Chain of LNX1_1, Q8TBB1 (Q8TBB1 261-371): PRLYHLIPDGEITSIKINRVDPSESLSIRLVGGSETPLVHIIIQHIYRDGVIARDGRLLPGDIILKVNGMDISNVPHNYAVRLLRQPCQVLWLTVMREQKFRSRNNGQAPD
Chain of NHERF4_4, Q86UT5 (Q86UT5 464-550): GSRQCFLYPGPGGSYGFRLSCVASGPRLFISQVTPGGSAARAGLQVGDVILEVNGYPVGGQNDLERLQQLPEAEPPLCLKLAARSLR
Chain of MAGI2_2, Q86UL8 (Q86UL8 410-522): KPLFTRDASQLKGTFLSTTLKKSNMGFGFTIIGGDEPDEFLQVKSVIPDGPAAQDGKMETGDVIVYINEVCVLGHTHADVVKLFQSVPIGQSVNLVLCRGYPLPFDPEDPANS
Chain of PTPN3, P26045 (P26045 505-587): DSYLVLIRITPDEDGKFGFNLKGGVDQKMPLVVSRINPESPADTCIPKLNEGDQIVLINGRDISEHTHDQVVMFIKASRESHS
Chain of NHERF2_2, Q15599 (Q15599 142-238): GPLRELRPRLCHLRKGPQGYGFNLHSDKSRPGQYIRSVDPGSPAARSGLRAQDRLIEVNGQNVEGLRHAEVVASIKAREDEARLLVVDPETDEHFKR
Chain of MAGI2_3, Q86UL8 (Q86UL8 600-682): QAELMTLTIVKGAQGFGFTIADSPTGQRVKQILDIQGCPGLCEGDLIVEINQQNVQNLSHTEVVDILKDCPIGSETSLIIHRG
Chain of GIPC2, Q8TF65 (Q8TF65 112-203): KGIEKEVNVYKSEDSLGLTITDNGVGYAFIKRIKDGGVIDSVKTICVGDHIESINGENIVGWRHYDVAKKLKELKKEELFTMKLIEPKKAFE
Chain of MAST2, Q6P0Q8 (Q6P0Q8 1099-1202): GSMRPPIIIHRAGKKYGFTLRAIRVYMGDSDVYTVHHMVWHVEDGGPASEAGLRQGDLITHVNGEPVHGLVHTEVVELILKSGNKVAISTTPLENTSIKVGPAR
Chain of GRID2IP_1, A4D2P6 (A4D2P6 1-87): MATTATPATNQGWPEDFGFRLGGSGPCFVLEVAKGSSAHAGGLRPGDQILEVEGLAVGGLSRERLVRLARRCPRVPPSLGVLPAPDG
Chain of DLG5_1, Q8TDM6 (Q8TDM6 617-713): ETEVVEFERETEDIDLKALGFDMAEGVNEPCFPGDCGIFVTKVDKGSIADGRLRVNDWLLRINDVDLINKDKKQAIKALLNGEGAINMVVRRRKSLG
Chain of GRASP, Q7Z6J2 (Q7Z6J2 96-193): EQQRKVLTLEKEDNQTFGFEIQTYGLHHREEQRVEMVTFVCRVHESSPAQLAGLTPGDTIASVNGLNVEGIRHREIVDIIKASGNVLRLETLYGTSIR
Chain of Inadl_9, Q8NI35 (Q8NI35 1530-1615): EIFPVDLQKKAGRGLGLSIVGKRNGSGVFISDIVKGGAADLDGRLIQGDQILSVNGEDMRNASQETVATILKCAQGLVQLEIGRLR
Chain of Inadl_10, Q8NI35 (Q8NI35 1673-1763): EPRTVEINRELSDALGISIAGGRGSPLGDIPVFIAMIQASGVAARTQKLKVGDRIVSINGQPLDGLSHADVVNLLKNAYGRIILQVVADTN

QKNRKAQEDL [CES3, Q6UWW8]
pKd (GIPC2, Q8TF65; [1]): below the threshold
pKd (MAGI2_3, Q86UL8; [1]): 3.83
pKd (PCLO, Q9Y6V0; [1]): below the threshold
pKd (NHERF2_2, Q15599; [1]): below the threshold
pKd (MAST2, Q6P0Q8; [1]): below the threshold
pKd (DLG2_3, Q15700; [1]): 3.65
pKd (ARHGEF11, O15085; [1]): below the threshold
pKd (LIN7A, O14910; [1]): below the threshold
pKd (TX1BP3, O14907; [1]): below the threshold
pKd (PDZRN4_1, Q6ZMN7; [1]): below the threshold
pKd (Inadl_10, Q8NI35; [1]): below the threshold
pKd (MPDZ_12, O75970; [1]): below the threshold
pKd (PTPN13_1, Q12923; [1]): below the threshold
pKd (SHANK1, Q9Y566; [1]): below the threshold
pKd (GORASP2, Q9H8Y8; [1]): below the threshold
pKd (Inadl_1, Q8NI35; [1]): below the threshold
pKd (DLG1_1, Q12959; [1]): below the threshold
pKd (GRASP, Q7Z6J2; [1]): below the threshold
pKd (MAGI2_2, Q86UL8; [1]): below the threshold
pKd (DLG3_2, Q92796; [1]): 4.21
pKd (Inadl_5, Q8NI35; [1]): below the threshold
pKd (DLG5_1, Q8TDM6; [1]): below the threshold
pKd (Inadl_9, Q8NI35; [1]): below the threshold
pKd (MAGI2_6, Q86UL8; [1]): below the threshold
pKd (FRMPD1, Q5SYB0; [1]): below the threshold
pKd (GRID2IP_1, A4D2P6; [1]): below the threshold
pKd (PTPN3, P26045; [1]): 3.74
pKd (LNX1_1, Q8TBB1; [1]): below the threshold
pKd (NHERF4_4, Q86UT5; [1]): below the threshold

PKRSFIESNV [TANC1, Q9C0D5]
pKd (GIPC2, Q8TF65; [1]): 3.83
pKd (MAGI2_3, Q86UL8; [1]): 3.98
pKd (PCLO, Q9Y6V0; [1]): below the threshold
pKd (NHERF2_2, Q15599; [1]): below the threshold
pKd (MAST2, Q6P0Q8; [1]): 5.2
pKd (DLG2_3, Q15700; [1]): 4.28
pKd (ARHGEF11, O15085; [1]): 3.55
pKd (LIN7A, O14910; [1]): 3.49
pKd (TX1BP3, O14907; [1]): 5.72
pKd (PDZRN4_1, Q6ZMN7; [1]): 3.82
pKd (Inadl_10, Q8NI35; [1]): below the threshold
pKd (MPDZ_12, O75970; [1]): below the threshold
pKd (PTPN13_1, Q12923; [1]): below the threshold
pKd (SHANK1, Q9Y566; [1]): below the threshold
pKd (GORASP2, Q9H8Y8; [1]): 4.06
pKd (Inadl_1, Q8NI35; [1]): below the threshold
pKd (DLG1_1, Q12959; [1]): 4.69
pKd (GRASP, Q7Z6J2; [1]): below the threshold
pKd (MAGI2_2, Q86UL8; [1]): 4.81
pKd (DLG3_2, Q92796; [1]): 4.77
pKd (Inadl_5, Q8NI35; [1]): below the threshold
pKd (DLG5_1, Q8TDM6; [1]): below the threshold
pKd (Inadl_9, Q8NI35; [1]): below the threshold
pKd (MAGI2_6, Q86UL8; [1]): 4.09
pKd (FRMPD1, Q5SYB0; [1]): below the threshold
pKd (GRID2IP_1, A4D2P6; [1]): below the threshold
pKd (PTPN3, P26045; [1]): 4.57
pKd (LNX1_1, Q8TBB1; [1]): 4.08
pKd (NHERF4_4, Q86UT5; [1]): 3.83

NLNSSEGVPDLLV [SARS-CoV-E, P59637]
pKd (GIPC2, Q8TF65; [2]): below the threshold
pKd (MAGI2_3, Q86UL8; [2]): below the threshold
pKd (PCLO, Q9Y6V0; [2]): below the threshold
pKd (NHERF2_2, Q15599; [2]): below the threshold
pKd (MAST2, Q6P0Q8; [2]): below the threshold
pKd (DLG2_3, Q15700; [2]): below the threshold
pKd (ARHGEF11, O15085; [2]): below the threshold
pKd (LIN7A, O14910; [2]): below the threshold
pKd (TX1BP3, O14907; [2]): below the threshold
pKd (PDZRN4_1, Q6ZMN7; [2]): below the threshold
pKd (Inadl_10, Q8NI35; [2]): below the threshold
pKd (MPDZ_12, O75970; [2]): below the threshold
pKd (PTPN13_1, Q12923; [2]): below the threshold
pKd (SHANK1, Q9Y566; [2]): below the threshold
pKd (GORASP2, Q9H8Y8; [2]): below the threshold
pKd (Inadl_1, Q8NI35; [2]): below the threshold
pKd (DLG1_1, Q12959; [2]): below the threshold
pKd (GRASP, Q7Z6J2; [2]): below the threshold
pKd (MAGI2_2, Q86UL8; [2]): below the threshold
pKd (DLG3_2, Q92796; [2]): below the threshold
pKd (Inadl_5, Q8NI35; [2]): below the threshold
pKd (DLG5_1, Q8TDM6; [2]): below the threshold
pKd (Inadl_9, Q8NI35; [2]): below the threshold
pKd (MAGI2_6, Q86UL8; [2]): below the threshold
pKd (FRMPD1, Q5SYB0; [2]): below the threshold
pKd (GRID2IP_1, A4D2P6; [2]): below the threshold
pKd (PTPN3, P26045; [2]): below the threshold
pKd (LNX1_1, Q8TBB1; [2]): below the threshold
pKd (NHERF4_4, Q86UT5; [2]): below the threshold

— article PMC9482650, “Quantitative fragmentomics allow affinity mapping of interactomes” (Nature Communications, 2022)
